Measured values published in publication PMC314469, “Protein Interaction Networks by Proteome Peptide Scanning” (PLoS Biology, 2004).

T1: amphyphisin SH3 (AMPH_HUMAN), P49418
T1 chain: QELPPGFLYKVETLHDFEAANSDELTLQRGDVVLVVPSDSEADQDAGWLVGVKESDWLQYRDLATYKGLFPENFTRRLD


Key:
[1] = biological target: endophilin SH3 (SH3G2_HUMAN), Q99962; experiment: SPOT array
[2] = biological target: T1, amphyphisin SH3 (AMPH_HUMAN), P49418; experiment: SPOT array

| normalised SPOT signal, Boehringer light units (BLU); mean over the file's lines of this peptide [1] | normalised SPOT signal, Boehringer light units (BLU); mean over the file's lines of this peptide [2] | Binder |
| --- | --- | --- |
| 228 | 198 | EVPDPNRPQRLGLH [O60275 1047-1060] |
| 7.9 | 14.8 | FLDYLKRPGLTYLQ [O14802 125-138] |
| 102 | 660 | EVITLERPLRSSSS [O15162 171-184] |
| 86 | 43.8 | EYHRPAKPPPPPTG [BAC04960 97-111] |
| 238 | 248 | AHLPPPRPQRPAET [Q9UFB1 214-227] |
| 8610 | 80.6 | FLGGPARPPSPSPS [P08588 264-278] |
| 136 | 143 | EVQPPVRPGKGGSV [Q9BXU7 105-118] |
| 170 | 308 | EWASLLRPLRGREP [O94987 53-66] |
| 51.1 | 18.4 | FGAVLRRPHDPKTV [Q07283 41-54] |
| 190 | 168 | FLAKIARPKKRAET [P78508 165-178] |
| 159 | 62.9 | FFKGIRRPWKGVLM [O75449 234-247] |
| 417 | 137 | AHMAISRPLKASQM [Q9HCH8 560-573] |
| 121 | 384 | EVITLERPLRSNSS [Q9NRY7 86-99] |
| 147 | 48.9 | FEEGIKRPYFHVKP [Q9NWR1 213-226] |
| 204 | 41.6 | FAPEFRRPKNIHLR [Q9UPW7 1021-1034] |
| 45.5 | 34 | FGDKFKRPIGSWES [P49790 786-799] |
| 557 | 95.2 | EWIVFRRPVPISYH [P23470 266-279] |
| 83.3 | 35.7 | FGRRPRRPVDGRVG [Q8WUZ5 5-18] |
| 994 | 48.3 | FGDLPRKPPLPSSA [Q96QH2 422-436] |
| 2980 | 15900 | FHKIFIRPLRYRSR [Q13258 335-348] |
| 1230 | 164 | FLSIPRRPNWNQNT [Q9NUK8 110-123] |

| normalised SPOT signal, Boehringer light units (BLU); mean over the file's lines of this peptide [1] | normalised SPOT signal, Boehringer light units (BLU); mean over the file's lines of this peptide [2] | Binder |
| --- | --- | --- |
| 67.7 | 43.8 | FEGSLRRPLSWKSL [Q9BPU7 391-404] |
| 2210 | 236 | EVMILRRPSLQRRA [Q9ULT8 713-726] |
| 284 | 647 | FGLVPERPLKQELG [Q99526 361-374] |
| 182 | 16.4 | ETSMLKRPVLLHLQ [Q9Y6U5 44-57] |
| 351 | 66.2 | FDGRPTKPPPNSYS [P17480 292-306] |
| 122 | 484 | EVFFPPRPERVEHN [Q16530 104-117] |
| 479 | 117 | FIKIPRRPDQPGKG [Q99853 71-84] |
| 343 | 4010 | FERPFRRPNANFTS [Q9NVW8 331-344] |
| 281 | 135 | EVDGLSRPQRPRPR [Q9HC10 643-656] |
| 36.7 | 36.5 | FDGSPEKPPEDDSD [O94885 388-402] |
| 36.6 | 38.5 | EYALPQRPPQGPED [BAC04305 7-21] |
| 170 | 1220 | FDNTLSRPSRVPLG [Q99743 208-221] |
| 51.2 | 20.7 | AGSSPRRPQGGSDA [Q96IQ9 293-306] |
| 34.9 | 43.8 | EVLELRRPMDSRLE [P78524 857-870] |
| 63 | 103 | EVEMLPRPPKVTKE [P11532 250-263] |
| 41.8 | 36 | EVPTPKRPRGRPKG [P17096 49-62] |
| 2020 | 42.3 | FLLLPPRPPPARPE [Q96IC8 98-112] |
| 557 | 3460 | FKDVLLRPKRSSLK [P36959 12-25] |
| 399 | 22 | FSDFLKRPIALLKM [Q9H3T9 40-53] |
| 77.3 | 52.3 | FGTLPPRPPGQDTS [O75336 479-493] |
| 116 | 34.2 | FLGHIKRPWGISVG [Q12908 58-71] |
